Two molecules from PMC11167000 (2024) can be followed below.

Assay [1] has as its target T1, human BMP7 (human, UniProt P18075 293-431).
T1 chain: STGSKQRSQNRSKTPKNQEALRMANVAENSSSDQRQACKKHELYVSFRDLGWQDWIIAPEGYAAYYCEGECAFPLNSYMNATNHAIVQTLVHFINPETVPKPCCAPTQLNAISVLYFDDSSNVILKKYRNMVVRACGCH
Briefly: SPR; Ca; replicate 2.

The target in assay [2] is T2, human BMP2 (human, UniProt P12643 283-396).
T2 chain: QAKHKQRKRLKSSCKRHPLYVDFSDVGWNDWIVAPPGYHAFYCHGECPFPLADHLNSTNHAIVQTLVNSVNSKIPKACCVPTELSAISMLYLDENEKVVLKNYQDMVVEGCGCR
Briefly: SPR; Ca; replicate 2. A general note: Surface plasmon resonance follows binding to a sensor surface in real time, without labels.

The target in assay [3] is T3, human Growth Differentiation Factor 5 (GDF5, A382–R501) (human, UniProt P43026 382-501).
T3 chain: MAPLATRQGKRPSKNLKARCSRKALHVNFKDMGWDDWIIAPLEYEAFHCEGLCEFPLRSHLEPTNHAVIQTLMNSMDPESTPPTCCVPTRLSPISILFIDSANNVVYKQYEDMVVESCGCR
Description: SPR; Ca; replicate 2.

For assay [4], the target named is T3, human Growth Differentiation Factor 5 …. Briefly: SPR; Ca; replicate 1.
Assay [5] deals with T1, human BMP7. Description: SPR; Ca; replicate 1.
In assay [6] the target is T2, human BMP2. Description: SPR; Ca; replicate 1.
The target in assay [7] is T3, human Growth Differentiation Factor 5 …. Description: SPR; 2 mM CaCl2; replicate 2.
For assay [8], the target named is T1, human BMP7. Description: SPR; 2 mM CaCl2; replicate 2.
Assay [9] has as its target T2, human BMP2. Briefly: SPR; 2 mM CaCl2; replicate 2.
The target in assay [10] is T3, human Growth Differentiation Factor 5 …. Description: SPR; 2 mM CaCl2; replicate 1.
The target of assay [11] is T1, human BMP7. Briefly: SPR; 2 mM CaCl2; replicate 1.
Assay [12] addresses T2, human BMP2. Briefly: SPR; 2 mM CaCl2; replicate 1.
For assay [13], the target named is T3, human Growth Differentiation Factor 5 …. Briefly: SPR; 2 mM EDTA; replicate 1.
The target in assay [14] is T1, human BMP7. Description: SPR; 2 mM EDTA; replicate 1.
For assay [15], the target named is T2, human BMP2. Description: SPR; 2 mM EDTA; replicate 1.
For assay [16], the target named is T3, human Growth Differentiation Factor 5 …. Briefly: SPR; 2 mM EDTA; replicate 2.
For assay [17], the target named is T1, human BMP7. Briefly: SPR; 2 mM EDTA; replicate 2.
In assay [18] the target is T2, human BMP2. Description: SPR; 2 mM EDTA; replicate 2.

The Kd is the constant that tells how readily two partners part at equilibrium. A high value points to weaker binding.

No end group written: not given here.

B1: TWSG1 NTD Asp34Ala (protein)
chain: CNKALCASAVSKCLIQELCQCRPGEGNCSCCKECMLCLGALWDECCDCVGMCNPRNYS
modifications: disulfide (positions not given here); also: 7 disulfides in NTD, pairing not given here
As to B1, the Kd in the assay with human BMP7 [1] is 557 nM; with human BMP2 [2] it was 771 nM; in [3], 60.6 nM; in [4] it was 121 nM; with human BMP7 [5], 247 nM; in the assay with human BMP2 [6] it was 943 nM.

B2: BMPR1B (receptor)
chain: KKEDGESTAPTPRPKVLRCKCHHHCPEDSVNNICSTDGYCFTMIEEDDSGLPVVTSGCLGLEGSDFQCRDTPIPHQRRSIECCTERNECNKDLHPTLPPLKNRDFVDGPIHHR
On to B2, for which the Kd in [7] is 2840 nM; in the assay with human BMP7 [8], 5740 nM; with human BMP2 [9], 1650 nM; in [10], 4550 nM; with human BMP7 [11] it was 2940 nM; in the assay with human BMP2 [12], 2120 nM. For the same molecule, the Kd in assay [13] was 4720 nM; with human BMP7 [14], 13500 nM; in the assay with human BMP2 [15], 8140 nM; in assay [16], 4010 nM; in the assay with human BMP7 [17], 12800 nM; with human BMP2 [18] it was 9540 nM.
